# Source: patent US10328136
# Target: nectin-1 (human) (UniProt Q15223)
# Assay: cell-based or functional assay
# UniProt Q15223, sequence (Q15223 31-517): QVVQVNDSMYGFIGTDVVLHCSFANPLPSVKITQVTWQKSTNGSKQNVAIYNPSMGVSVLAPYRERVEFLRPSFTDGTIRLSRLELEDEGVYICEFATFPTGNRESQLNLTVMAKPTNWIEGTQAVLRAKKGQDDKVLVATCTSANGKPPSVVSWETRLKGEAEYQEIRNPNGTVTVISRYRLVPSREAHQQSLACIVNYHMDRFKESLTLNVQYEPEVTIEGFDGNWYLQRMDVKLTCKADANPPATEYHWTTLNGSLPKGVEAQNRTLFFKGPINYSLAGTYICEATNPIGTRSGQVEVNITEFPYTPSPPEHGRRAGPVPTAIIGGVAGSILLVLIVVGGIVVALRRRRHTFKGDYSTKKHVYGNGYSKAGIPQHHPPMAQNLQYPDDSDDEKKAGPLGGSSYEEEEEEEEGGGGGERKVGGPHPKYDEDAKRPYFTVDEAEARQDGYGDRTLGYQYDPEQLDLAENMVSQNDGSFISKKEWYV
substance,measurement,value
wild-type glycoprotein D (gD) of HSV-1 strain KOS,"entry of QOZHG into J/C cells (X-gal staining at 24 hpi, MOI=10)",100%
